± gives the standard error. For some of these results: Fewer inactive variants are shown than the library holds.
B1: glmS ribozyme (parent)
chain: AUAAAAGCGCCAGAACUACAGAAAUGUAGUUGACGAGGAGGAGGUUUAUCGAAUUUUCGGCGGAUGCCUCCAAA

Columns and labels:
Settings in all cases: with glucosamine-6-phosphate
glucosamine-6-phosphate [1] = variants of: B1; test: kcat; higher = faster cleavage; RNA array
Method in brief: (§1)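 Using a hybridised Cy3 probe at 37 °C, barcoded ribozyme variants transcribed in situ by E. coli RNA polymerase on sequenced MiSeq chips were monitored across tiles imaged over ~14 h. The flow contained glucosamine-6-phosphate from 40 μM to 10 mM in HEPES/KCl/Mg(OAc)2 buffer. Signals were normalised to baseline and to non-cleaving reference variants before per-tile medians were fit to one- or two-exponential decays to yield kobs. Weighted Michaelis–Menten fits across concentrations gave kcat and KM.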

glucosamine-6-phosphate [2] = variants of: B1; test: KM; higher = weaker cofactor use; RNA array
Method in brief: as §1

glucosamine-6-phosphate [3] = variants of: B1; test: self-cleavage kobs at 10000 uM GlcN6P; higher = faster cleavage; RNA array
Method in brief: as §1

glucosamine-6-phosphate [4] = variants of: B1; test: self-cleavage kobs at 640 uM GlcN6P; higher = faster cleavage; RNA array
Method in brief: as §1

glucosamine-6-phosphate [5] = variants of: B1; test: self-cleavage kobs at 2500 uM GlcN6P; higher = faster cleavage; RNA array
Method in brief: as §1

glucosamine-6-phosphate [6] = variants of: B1; test: self-cleavage kobs at 40 uM GlcN6P; higher = faster cleavage; RNA array
Method in brief: as §1

glucosamine-6-phosphate [7] = variants of: B1; test: self-cleavage kobs at 160 uM GlcN6P; higher = faster cleavage; RNA array
Method in brief: as §1

Variant | kcat (glucosamine-6-phosphate [1]) [s⁻¹] | KM (glucosamine-6-phosphate [2]) [µM] | self-cleavage kobs at 10000 uM GlcN6P (glucosamine-6-phosphate [3]) [s⁻¹] | self-cleavage kobs at 640 uM GlcN6P (glucosamine-6-phosphate [4]) [s⁻¹] | self-cleavage kobs at 2500 uM GlcN6P (glucosamine-6-phosphate [5]) [s⁻¹] | self-cleavage kobs at 40 uM GlcN6P (glucosamine-6-phosphate [6]) [s⁻¹] | self-cleavage kobs at 160 uM GlcN6P (glucosamine-6-phosphate [7]) [s⁻¹]
G29A U57A | 4e-05 ± 1.6e-06 | 877 ± 180 | 3.64e-05 ± 1.7e-05 |  |  |  | 
C16A C70A | 3.47e-05 ± 1.4e-05 |  |  | 3.14e-05 ± 1.6e-05 | 6.59e-05 ± 2.4e-05 |  | 
C16G G51C | < 1e-05 |  |  |  |  | < 1e-05 | 
C16G C50G | 4.79e-05 ± 1.9e-05 |  |  |  | 6.05e-05 ± 1.4e-05 |  | 
C16A A42C | < 1e-05 |  | < 1e-05 |  | < 1e-05 | < 1e-05 | < 1e-05
C16U G41A | 0.00129 ± 0.00064 |  |  | 0.000403 ± 7.6e-05 | 0.0011 ± 0.00019 | 6.97e-05 ± 1.2e-05 | 0.000153 ± 3.2e-05
G29A U31A | 0.00193 ± 0.00042 | 1110 ± 410 | 0.00165 ± 0.00037 | 0.00109 ± 0.00022 | 0.00129 ± 0.00029 | 6.33e-05 ± 1.9e-05 | 0.000184 ± 7.5e-05
C16G U45A | 0.0107 ± 0.0033 | 2340 ± 1100 | 0.0101 ± 0.0013 | 0.00226 ± 0.00044 | 0.00423 ± 0.00082 | 0.000245 ± 3.1e-05 | 0.00048 ± 0.00013
C16A G41A | 4e-05 ± 4.5e-07 | 806 ± 51 | 3.7e-05 ± 1.1e-05 |  |  |  | 

— the supplement of paper PMC7125110
